# Reference: IntAct's records for PubMed 36931259
# B1: 14-3-3 protein sigma (Homo sapiens), P31947 (parent)
# chain: MERASLIQKAKLAEQAERYEDMAAFMKGAVEKGEELSCEERNLLSVAYKNVVGGQRAAWRVLSSIEQKSNEEGSEEKGPEVREYREKVETELQGVCDTVLGLLDSHLIKEAGDAESRVFYLKMKGDYYRYLAEVATGDDKKRIIDSARSAYQEAMDISKKEMPPTNPIRLGLALNFSVFHYEIANSPEEAISLAKTTFDEAMADLHTLSEDSYKDSTLIMQLLRDNLTLWTADNAGEEGGEAPQEPQS
# partner: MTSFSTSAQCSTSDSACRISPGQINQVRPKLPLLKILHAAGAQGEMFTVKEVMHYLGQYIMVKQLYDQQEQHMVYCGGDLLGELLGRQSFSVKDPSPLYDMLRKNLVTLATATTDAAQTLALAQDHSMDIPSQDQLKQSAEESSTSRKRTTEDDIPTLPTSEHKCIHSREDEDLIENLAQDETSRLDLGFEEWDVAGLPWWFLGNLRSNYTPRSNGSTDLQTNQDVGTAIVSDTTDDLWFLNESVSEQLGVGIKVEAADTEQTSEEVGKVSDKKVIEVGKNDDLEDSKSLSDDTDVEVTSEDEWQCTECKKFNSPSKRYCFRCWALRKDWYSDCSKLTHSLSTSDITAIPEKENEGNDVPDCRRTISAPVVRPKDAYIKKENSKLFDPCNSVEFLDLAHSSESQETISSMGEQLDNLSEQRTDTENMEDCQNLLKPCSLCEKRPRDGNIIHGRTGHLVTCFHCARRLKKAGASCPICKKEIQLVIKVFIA
# B2: 14-3-3 protein sigma (Homo sapiens), P31947 (parent)
# chain: B1 chain
# partner: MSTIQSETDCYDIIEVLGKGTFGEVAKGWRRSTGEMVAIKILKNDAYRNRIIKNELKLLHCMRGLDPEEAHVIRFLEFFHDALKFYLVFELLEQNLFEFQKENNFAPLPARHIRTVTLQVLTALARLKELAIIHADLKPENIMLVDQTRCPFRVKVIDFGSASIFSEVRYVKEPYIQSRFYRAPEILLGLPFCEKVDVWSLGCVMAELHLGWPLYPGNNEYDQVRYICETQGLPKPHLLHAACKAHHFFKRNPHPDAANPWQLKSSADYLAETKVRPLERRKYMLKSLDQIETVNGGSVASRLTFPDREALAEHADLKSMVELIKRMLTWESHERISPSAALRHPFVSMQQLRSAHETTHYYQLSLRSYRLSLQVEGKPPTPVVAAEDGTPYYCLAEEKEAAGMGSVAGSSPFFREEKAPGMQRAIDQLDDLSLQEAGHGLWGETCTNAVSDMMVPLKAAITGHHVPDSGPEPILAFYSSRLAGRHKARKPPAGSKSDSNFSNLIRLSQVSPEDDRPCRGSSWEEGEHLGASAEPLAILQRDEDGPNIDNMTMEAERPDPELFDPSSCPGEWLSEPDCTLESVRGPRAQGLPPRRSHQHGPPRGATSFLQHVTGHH
# B3: 14-3-3 protein sigma (Homo sapiens), P31947 (parent)
# chain: B1 chain
# partner: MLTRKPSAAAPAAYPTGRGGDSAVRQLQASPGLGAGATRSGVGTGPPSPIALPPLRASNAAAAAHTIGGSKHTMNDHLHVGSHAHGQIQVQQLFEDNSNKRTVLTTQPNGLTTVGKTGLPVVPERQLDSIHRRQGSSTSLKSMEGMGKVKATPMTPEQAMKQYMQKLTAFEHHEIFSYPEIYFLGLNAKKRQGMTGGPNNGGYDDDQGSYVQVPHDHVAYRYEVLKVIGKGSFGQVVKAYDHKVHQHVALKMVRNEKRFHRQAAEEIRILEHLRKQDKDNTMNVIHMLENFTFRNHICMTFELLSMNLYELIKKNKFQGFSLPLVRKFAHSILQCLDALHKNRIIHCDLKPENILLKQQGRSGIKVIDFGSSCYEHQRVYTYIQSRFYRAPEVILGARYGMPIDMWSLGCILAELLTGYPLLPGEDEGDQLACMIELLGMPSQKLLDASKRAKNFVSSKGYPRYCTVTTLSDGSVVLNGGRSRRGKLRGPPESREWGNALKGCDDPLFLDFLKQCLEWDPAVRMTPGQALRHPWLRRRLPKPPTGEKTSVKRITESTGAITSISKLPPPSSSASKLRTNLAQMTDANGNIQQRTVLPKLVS
# B4: 14-3-3 protein sigma (Homo sapiens), P31947 (parent)
# chain: B1 chain
# partner: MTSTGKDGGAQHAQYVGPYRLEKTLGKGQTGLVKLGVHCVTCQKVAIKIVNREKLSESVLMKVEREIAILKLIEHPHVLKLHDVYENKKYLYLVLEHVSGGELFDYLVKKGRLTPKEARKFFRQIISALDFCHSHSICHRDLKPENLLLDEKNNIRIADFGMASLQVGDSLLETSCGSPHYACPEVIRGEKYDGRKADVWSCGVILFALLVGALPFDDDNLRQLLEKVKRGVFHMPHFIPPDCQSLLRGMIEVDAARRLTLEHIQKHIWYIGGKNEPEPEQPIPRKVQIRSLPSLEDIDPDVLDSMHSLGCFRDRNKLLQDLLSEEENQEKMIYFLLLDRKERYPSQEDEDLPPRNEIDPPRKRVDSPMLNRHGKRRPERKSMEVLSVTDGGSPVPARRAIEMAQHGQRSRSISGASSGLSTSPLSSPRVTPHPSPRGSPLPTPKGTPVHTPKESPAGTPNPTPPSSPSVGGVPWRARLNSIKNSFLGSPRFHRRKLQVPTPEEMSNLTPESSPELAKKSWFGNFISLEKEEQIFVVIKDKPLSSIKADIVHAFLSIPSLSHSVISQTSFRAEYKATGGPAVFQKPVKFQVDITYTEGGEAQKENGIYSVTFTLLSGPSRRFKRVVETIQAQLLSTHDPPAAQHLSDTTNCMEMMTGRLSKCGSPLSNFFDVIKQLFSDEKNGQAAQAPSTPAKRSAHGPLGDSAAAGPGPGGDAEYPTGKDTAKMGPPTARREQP
# B5: 14-3-3 protein sigma (Homo sapiens), P31947 (parent)
# chain: B1 chain
# partner: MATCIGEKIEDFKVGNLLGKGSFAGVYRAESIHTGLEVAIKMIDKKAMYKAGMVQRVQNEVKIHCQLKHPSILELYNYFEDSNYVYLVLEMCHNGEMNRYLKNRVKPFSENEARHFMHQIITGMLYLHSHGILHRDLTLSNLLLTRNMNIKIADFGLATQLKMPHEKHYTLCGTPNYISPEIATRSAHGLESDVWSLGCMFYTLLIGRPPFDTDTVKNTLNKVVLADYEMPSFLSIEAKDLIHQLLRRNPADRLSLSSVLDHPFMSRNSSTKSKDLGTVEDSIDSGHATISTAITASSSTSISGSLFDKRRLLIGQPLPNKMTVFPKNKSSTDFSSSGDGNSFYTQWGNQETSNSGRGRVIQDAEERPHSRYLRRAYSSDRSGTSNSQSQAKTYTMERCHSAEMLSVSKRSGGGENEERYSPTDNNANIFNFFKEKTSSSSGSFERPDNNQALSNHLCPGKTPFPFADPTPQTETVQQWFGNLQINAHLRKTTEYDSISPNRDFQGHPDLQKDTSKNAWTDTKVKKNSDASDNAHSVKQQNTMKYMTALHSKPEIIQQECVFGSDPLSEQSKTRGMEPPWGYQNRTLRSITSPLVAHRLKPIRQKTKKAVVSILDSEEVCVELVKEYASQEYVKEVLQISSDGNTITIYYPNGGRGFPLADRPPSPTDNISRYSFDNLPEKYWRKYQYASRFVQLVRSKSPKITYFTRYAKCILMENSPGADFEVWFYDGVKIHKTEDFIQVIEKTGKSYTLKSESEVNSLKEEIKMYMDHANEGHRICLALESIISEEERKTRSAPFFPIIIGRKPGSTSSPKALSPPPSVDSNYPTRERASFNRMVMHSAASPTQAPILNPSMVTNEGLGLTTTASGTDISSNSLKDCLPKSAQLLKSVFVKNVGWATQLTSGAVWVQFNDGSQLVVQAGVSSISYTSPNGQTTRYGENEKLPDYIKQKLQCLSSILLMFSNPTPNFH
# B6: 14-3-3 protein sigma (Homo sapiens), P31947 (parent)
# chain: B1 chain
# partner: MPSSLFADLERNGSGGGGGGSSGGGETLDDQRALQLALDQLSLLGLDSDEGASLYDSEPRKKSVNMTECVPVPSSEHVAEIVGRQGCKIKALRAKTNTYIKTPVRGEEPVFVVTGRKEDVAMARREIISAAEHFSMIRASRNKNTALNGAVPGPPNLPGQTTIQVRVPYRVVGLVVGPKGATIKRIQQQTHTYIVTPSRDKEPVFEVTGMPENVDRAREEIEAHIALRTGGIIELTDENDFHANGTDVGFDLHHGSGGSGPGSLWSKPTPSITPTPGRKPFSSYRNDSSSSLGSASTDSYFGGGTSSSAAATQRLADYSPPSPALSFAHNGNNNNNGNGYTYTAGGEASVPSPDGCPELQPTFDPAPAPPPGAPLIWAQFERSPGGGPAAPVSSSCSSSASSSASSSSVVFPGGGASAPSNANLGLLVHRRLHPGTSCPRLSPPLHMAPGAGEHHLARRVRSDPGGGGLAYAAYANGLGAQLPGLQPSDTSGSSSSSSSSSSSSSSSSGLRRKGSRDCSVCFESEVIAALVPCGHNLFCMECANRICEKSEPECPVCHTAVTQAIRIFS
# B7: 14-3-3 protein sigma (Homo sapiens), P31947 (parent)
# chain: B1 chain
# partner: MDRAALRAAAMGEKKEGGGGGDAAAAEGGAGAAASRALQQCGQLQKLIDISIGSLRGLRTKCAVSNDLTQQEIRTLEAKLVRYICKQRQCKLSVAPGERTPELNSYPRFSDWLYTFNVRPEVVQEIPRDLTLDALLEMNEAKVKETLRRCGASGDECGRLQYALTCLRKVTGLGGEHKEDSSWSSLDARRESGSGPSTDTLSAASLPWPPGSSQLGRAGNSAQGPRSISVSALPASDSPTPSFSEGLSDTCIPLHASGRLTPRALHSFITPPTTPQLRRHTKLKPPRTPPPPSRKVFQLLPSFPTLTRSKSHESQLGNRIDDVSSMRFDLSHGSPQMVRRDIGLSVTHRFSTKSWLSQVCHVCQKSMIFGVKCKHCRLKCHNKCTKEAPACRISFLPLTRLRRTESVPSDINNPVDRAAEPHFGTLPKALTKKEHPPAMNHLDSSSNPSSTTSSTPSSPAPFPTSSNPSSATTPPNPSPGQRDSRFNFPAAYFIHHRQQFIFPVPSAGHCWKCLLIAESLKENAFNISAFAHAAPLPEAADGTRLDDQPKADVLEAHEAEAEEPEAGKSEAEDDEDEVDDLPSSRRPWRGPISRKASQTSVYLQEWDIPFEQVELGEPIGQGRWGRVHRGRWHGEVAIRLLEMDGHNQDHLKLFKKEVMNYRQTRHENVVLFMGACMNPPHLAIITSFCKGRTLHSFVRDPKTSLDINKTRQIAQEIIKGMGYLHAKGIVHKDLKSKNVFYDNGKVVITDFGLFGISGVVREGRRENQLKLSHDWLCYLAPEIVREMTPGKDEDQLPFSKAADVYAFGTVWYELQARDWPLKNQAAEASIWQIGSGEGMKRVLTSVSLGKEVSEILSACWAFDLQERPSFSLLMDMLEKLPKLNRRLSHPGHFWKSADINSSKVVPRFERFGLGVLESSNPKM
# B8: 14-3-3 protein sigma (Homo sapiens), P31947 (parent)
# chain: B1 chain
# partner: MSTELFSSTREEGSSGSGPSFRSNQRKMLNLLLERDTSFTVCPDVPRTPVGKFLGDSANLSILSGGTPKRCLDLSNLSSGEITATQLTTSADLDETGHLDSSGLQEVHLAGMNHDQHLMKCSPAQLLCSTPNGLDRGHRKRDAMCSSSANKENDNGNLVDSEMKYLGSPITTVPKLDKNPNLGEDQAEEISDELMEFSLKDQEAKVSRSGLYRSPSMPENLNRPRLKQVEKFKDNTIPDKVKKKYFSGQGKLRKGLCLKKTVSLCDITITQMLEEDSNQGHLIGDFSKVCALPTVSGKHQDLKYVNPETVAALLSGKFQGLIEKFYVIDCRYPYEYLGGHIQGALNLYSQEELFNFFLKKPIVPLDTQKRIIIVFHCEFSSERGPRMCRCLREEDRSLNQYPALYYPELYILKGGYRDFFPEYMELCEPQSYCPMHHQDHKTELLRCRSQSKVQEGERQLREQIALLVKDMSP
# B9: 14-3-3 protein sigma (Homo sapiens), P31947 (parent)
# chain: B1 chain
# partner: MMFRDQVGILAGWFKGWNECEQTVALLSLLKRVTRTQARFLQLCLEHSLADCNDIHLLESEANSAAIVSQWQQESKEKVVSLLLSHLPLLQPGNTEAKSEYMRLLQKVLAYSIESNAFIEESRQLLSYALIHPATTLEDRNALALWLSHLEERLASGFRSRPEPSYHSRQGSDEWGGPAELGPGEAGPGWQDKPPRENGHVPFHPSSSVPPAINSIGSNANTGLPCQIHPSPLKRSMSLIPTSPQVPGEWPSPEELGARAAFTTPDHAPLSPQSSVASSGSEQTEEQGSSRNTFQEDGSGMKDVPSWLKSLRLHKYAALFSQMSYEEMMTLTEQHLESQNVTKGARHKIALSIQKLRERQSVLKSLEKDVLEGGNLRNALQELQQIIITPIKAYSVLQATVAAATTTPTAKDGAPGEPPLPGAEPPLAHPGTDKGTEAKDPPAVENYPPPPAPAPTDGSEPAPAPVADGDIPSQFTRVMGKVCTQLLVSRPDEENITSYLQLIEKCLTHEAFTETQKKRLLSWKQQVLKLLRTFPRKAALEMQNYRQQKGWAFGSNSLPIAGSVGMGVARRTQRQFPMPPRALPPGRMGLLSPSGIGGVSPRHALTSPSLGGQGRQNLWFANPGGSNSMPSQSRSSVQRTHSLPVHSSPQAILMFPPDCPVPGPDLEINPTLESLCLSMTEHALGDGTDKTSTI
# Variants of: B1
# Settings: with mdm4_human MDM4, O15151
row,Variant,effect of a mutation on the interaction
1,K49E;R56E;V178D,decreasing interaction strength

# Variants of: B2
# Settings: with hipk4_human HIPK4, Q8NE63
row,Variant,effect of a mutation on the interaction
1,K49E;R56E;V178D,decreasing interaction strength

# Variants of: B3
# Settings: with dyrk2_human DYRK2, Q92630
row,Variant,effect of a mutation on the interaction
1,K49E;R56E;V178D,decreasing interaction strength

# Variants of: B4
# Settings: with brsk2_human BRSK2, Q8IWQ3
row,Variant,effect of a mutation on the interaction
1,K49E;R56E;V178D,decreasing interaction strength

# Variants of: B5
# Settings: with plk4_human PLK4, O00444
row,Variant,effect of a mutation on the interaction
1,K49E;R56E;V178D,decreasing interaction strength

# Variants of: B6
# Settings: with mex3b_human MEX3B
row,Variant,effect of a mutation on the interaction
1,K49E;R56E;V178D,decreasing interaction strength

# Variants of: B7
# Settings: with ksr1_human KSR1, Q8IVT5
row,Variant,effect of a mutation on the interaction
1,K49E;R56E;V178D,decreasing interaction strength

# Variants of: B8
# Settings: with mpip3_human CDC25C
row,Variant,effect of a mutation on the interaction
1,K49E;R56E;V178D,decreasing interaction strength

# Variants of: B9
# Settings: with smag2_human SAMD4B
row,Variant,effect of a mutation on the interaction
1,K49E;R56E;V178D,decreasing interaction strength
